Patent US20220204581A1, “MONOMERIC PEPTIDE MULTI-AGONIST […] THE GLP1 RECEPTOR AND NPY RECEPTORS” (SYRACUSE UNIVERSITY, published 2022)
Read-outs that look alike come from different tables or passages of the source. Where no end group is shown, it is not given here. The star is where a group is joined. azido = [N-]=[N+]=N*

T1: human NPY2-R (human, UniProt P49146)
T1 sequence: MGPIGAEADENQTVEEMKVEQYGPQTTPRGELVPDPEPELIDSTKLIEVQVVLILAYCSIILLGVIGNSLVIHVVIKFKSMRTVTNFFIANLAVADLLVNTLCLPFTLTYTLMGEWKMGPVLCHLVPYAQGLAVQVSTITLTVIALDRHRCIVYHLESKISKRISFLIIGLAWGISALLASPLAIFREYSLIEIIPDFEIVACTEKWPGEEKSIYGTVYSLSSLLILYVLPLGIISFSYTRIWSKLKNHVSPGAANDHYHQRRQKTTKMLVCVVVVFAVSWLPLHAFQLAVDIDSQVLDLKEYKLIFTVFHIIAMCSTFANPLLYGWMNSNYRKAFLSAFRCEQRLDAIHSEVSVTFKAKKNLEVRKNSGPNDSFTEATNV

B1: EP44 (peptide)
peptide: HSQGTFTSDLSK(azido)QINEEEAVRLFIEWLKNGGPSRHYLNLVTRQRY-NH2
B2: GEP44 (peptide)
peptide: HSQGTFTSDLSK(azido)YLEEEAVREFIAWLKNGGPSRHYLNLVTRQRY-NH2
B3: EP38 (peptide)
peptide: HGEGTFTSDLSKQMEEEAVRLFIEWLKNGGPSSTRQRY
modifications: C-terminal amidation; K12-azido modification

Tests used:
[1] = biological target: T2, human NPY1-R (human, UniProt P25929)
[2] = biological target: T2, human NPY1-R; remark: listed apart in the source
[3] = biological target: T2, human NPY1-R; test: cell-based or functional assay
[4] = biological target: T1, human NPY2-R; test: cell-based or functional assay
[5] = biological target: T3, human GLP-1R (human, UniProt P43220); test: cell-based or functional assay
[6] = biological target: T2, human NPY1-R; test: cell-based or functional assay; remark: listed apart in the source
[7] = biological target: T3, human GLP-1R; test: cell-based or functional assay; remark: listed apart in the source

| Molecule | EC50 (agonism of the Y1-R) [1] | EC50 Y1R [2] | EC50 Y1R [3] | EC50 Y2R [4] | EC50 GLP1R [5] | EC50 (agonism of the Y1-R) [6] | EC50 [7] |
| --- | --- | --- | --- | --- | --- | --- | --- |
| PYY1-36 (ligand) | 42 nM | 12 nM | – | – | – | – | – |
| B1 | – | – | > 100 nM | – | – | – | – |
| B2 | – | – | 24 nM | 10 nM | 0.33 nM | 83 nM | 300000 nM |
| B3 | – | – | – | > 300 nM | 0.08 nM | – | – |
